We go through 6 molecules from patent publication US20210388110A1 (published 2021).

By Kd is commonly meant the constant that tells how readily two partners part at equilibrium. A low value points to a tighter complex.

The experiment addresses T1, soluble human CD3ε chain (human, UniProt P07766 23-126, limits assumed).
T1 construct: the text says soluble human CD3ε chain; also called human CD3 epsilon chain
Description: SPR (Biacore). On the technique in general: Surface plasmon resonance follows binding to a sensor surface in real time, without labels.

T1 sequence (P07766 23-126 limits assumed): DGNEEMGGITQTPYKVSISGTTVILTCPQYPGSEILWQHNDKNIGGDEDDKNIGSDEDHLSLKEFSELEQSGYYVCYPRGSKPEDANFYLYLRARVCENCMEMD

B1: TR01H082-E22Hh/none-Hi-Kn010G3/L0203-k0 (antibody, human IgG1, kappa, L234A L235A, N297A)
heavy: QVQLVESGGGLVQPGRSLRLSCAASGFTFSNAWMHWVRQAPGKGLEWVAQIKDKSQNYATYYAESVKGRFTISRDDSKNSLYLQMNSLKTEDTAVYYCRYVHYAAGYGVDAWGQGTTVTVSSASTKGPSVFPLAPSSKSTSGGTAALGCLVKDYFPEPVTVSWNSGALTSGVHTFPAVLQSSGLYSLSSVVTVPSSSLGTQTYICNVNHKPSNTKVDKKVEPKSCDKTHTCPPCPAPEAAGGPSVFLFPPKPKDTLMISRTPEVTCVVVDVSHEDPEVKFNWYVDGVEVHNAKTKPREEQYASTYRVVSVLTVLHQDWLNGKEYKCKVSNKALPAPIEKTISKAKGQPREPQVYTLPPSRCELTKNQVSLSCAVKGFYPSDIAVEWESNGQPENNYKTTPPVLDSDGSFFLVSKLTVDKSRWQQGNVFSCSVMHEALHNHYTQKSLSLSPDYKDDDDK
chain: EPKSSDKTHTCPPCPAPELLGGPSVFLFPPKPKDTLMISRTPEVTCVVVDVSHEDPEVKFNWYVDGVEVHNAKTKPREEQYNSTYRVVSVLTVLHQDWLNGKEYKCKVSNKALPAPIEKTISKAKGQPREPQVCTLPPSRDELTKNQVSLWCLVKGFYPSDIAVEWESNGQPENNYKTTPPVLDSDGSFFLYSKLTVDKSRWQQGNVFSCSVMHEALHNRYTQKSLSLSP
light: DIVMTQSPLSLPVTPGEPASISCRSSQSPVHSNRNTYIHWYQQKPGQAPRLLIYKVSNRFSGVPDRFSGSGSGTDFTLKISRVEAEDVGVYYCGQGTQVPYTFGQGTKLEIKRTVAAPSVFIFPPSDEQLKSGTASVVCLLNNFYPREAKVQWKVDNALQSGNSQESVTEQDSKDSTYSLSSTLTLSKADYEKHKVYACEVTHQGLSSPVTKSFNRGEC
notes: single-arm
B1 yielded a dissociation constant Kd of 40.7 nM.

B2: TR01H082-E22Hh/none-Hi-Kn010G3/L0260-k0 (antibody, human IgG1, kappa, L234A L235A, N297A)
heavy: QVQLVESGGGLVQPGRSLRLSCAASGFTFSNAWMHWVRQAPGKGLEWVAQIKDKSQNYATYYAESVKGRFTISRDDSKNSLYLQMNSLKTEDTAVYYCRYVHYAAGYGVDAWGQGTTVTVSSASTKGPSVFPLAPSSKSTSGGTAALGCLVKDYFPEPVTVSWNSGALTSGVHTFPAVLQSSGLYSLSSVVTVPSSSLGTQTYICNVNHKPSNTKVDKKVEPKSCDKTHTCPPCPAPEAAGGPSVFLFPPKPKDTLMISRTPEVTCVVVDVSHEDPEVKFNWYVDGVEVHNAKTKPREEQYASTYRVVSVLTVLHQDWLNGKEYKCKVSNKALPAPIEKTISKAKGQPREPQVYTLPPSRCELTKNQVSLSCAVKGFYPSDIAVEWESNGQPENNYKTTPPVLDSDGSFFLVSKLTVDKSRWQQGNVFSCSVMHEALHNHYTQKSLSLSPDYKDDDDK
chain: EPKSSDKTHTCPPCPAPELLGGPSVFLFPPKPKDTLMISRTPEVTCVVVDVSHEDPEVKFNWYVDGVEVHNAKTKPREEQYNSTYRVVSVLTVLHQDWLNGKEYKCKVSNKALPAPIEKTISKAKGQPREPQVCTLPPSRDELTKNQVSLWCLVKGFYPSDIAVEWESNGQPENNYKTTPPVLDSDGSFFLYSKLTVDKSRWQQGNVFSCSVMHEALHNRYTQKSLSLSP
light: DIVMTQSPLSLPVTPGEPASISCRPSQSPVHSNRNTYLHWYQQKPGQAPRLLIYKVSNRFSGVPDRFSGSGSGTDFTLKISRVEAEDVGVYYCTQGTQVPYTFGQGTKLEIKRTVAAPSVFIFPPSDEQLKSGTASVVCLLNNFYPREAKVQWKVDNALQSGNSQESVTEQDSKDSTYSLSSTLTLSKADYEKHKVYACEVTHQGLSSPVTKSFNRGEC
notes: single-arm
Molecule B2 displayed an equilibrium dissociation constant (Kd) of 45.3 nM.

B3: TR01H082-E22Hh/none-Hi-Kn010G3/L0212-k0 (antibody, human IgG1, kappa, L234A L235A, N297A)
heavy: QVQLVESGGGLVQPGRSLRLSCAASGFTFSNAWMHWVRQAPGKGLEWVAQIKDKSQNYATYYAESVKGRFTISRDDSKNSLYLQMNSLKTEDTAVYYCRYVHYAAGYGVDAWGQGTTVTVSSASTKGPSVFPLAPSSKSTSGGTAALGCLVKDYFPEPVTVSWNSGALTSGVHTFPAVLQSSGLYSLSSVVTVPSSSLGTQTYICNVNHKPSNTKVDKKVEPKSCDKTHTCPPCPAPEAAGGPSVFLFPPKPKDTLMISRTPEVTCVVVDVSHEDPEVKFNWYVDGVEVHNAKTKPREEQYASTYRVVSVLTVLHQDWLNGKEYKCKVSNKALPAPIEKTISKAKGQPREPQVYTLPPSRCELTKNQVSLSCAVKGFYPSDIAVEWESNGQPENNYKTTPPVLDSDGSFFLVSKLTVDKSRWQQGNVFSCSVMHEALHNHYTQKSLSLSPDYKDDDDK
chain: EPKSSDKTHTCPPCPAPELLGGPSVFLFPPKPKDTLMISRTPEVTCVVVDVSHEDPEVKFNWYVDGVEVHNAKTKPREEQYNSTYRVVSVLTVLHQDWLNGKEYKCKVSNKALPAPIEKTISKAKGQPREPQVCTLPPSRDELTKNQVSLWCLVKGFYPSDIAVEWESNGQPENNYKTTPPVLDSDGSFFLYSKLTVDKSRWQQGNVFSCSVMHEALHNRYTQKSLSLSP
light: DIVMTQSPLSLPVTPGEPASISCRPSQSPVHSNRNTYLHWYQQKPGQAPRLLIYKVSNRFSGVPDRFSGSGSGTDFTLKISRVEAEDVGVYYCYQGTQVPYTFGQGTKLEIKRTVAAPSVFIFPPSDEQLKSGTASVVCLLNNFYPREAKVQWKVDNALQSGNSQESVTEQDSKDSTYSLSSTLTLSKADYEKHKVYACEVTHQGLSSPVTKSFNRGEC
notes: single-arm
In turn, B3 had an equilibrium dissociation constant (Kd) of 4.75 nM.

B4: TR01H082-E22Hh/none-Hi-Kn010G3/L0258-k0 (antibody, human IgG1, kappa, L234A L235A, N297A)
heavy: QVQLVESGGGLVQPGRSLRLSCAASGFTFSNAWMHWVRQAPGKGLEWVAQIKDKSQNYATYYAESVKGRFTISRDDSKNSLYLQMNSLKTEDTAVYYCRYVHYAAGYGVDAWGQGTTVTVSSASTKGPSVFPLAPSSKSTSGGTAALGCLVKDYFPEPVTVSWNSGALTSGVHTFPAVLQSSGLYSLSSVVTVPSSSLGTQTYICNVNHKPSNTKVDKKVEPKSCDKTHTCPPCPAPEAAGGPSVFLFPPKPKDTLMISRTPEVTCVVVDVSHEDPEVKFNWYVDGVEVHNAKTKPREEQYASTYRVVSVLTVLHQDWLNGKEYKCKVSNKALPAPIEKTISKAKGQPREPQVYTLPPSRCELTKNQVSLSCAVKGFYPSDIAVEWESNGQPENNYKTTPPVLDSDGSFFLVSKLTVDKSRWQQGNVFSCSVMHEALHNHYTQKSLSLSPDYKDDDDK
chain: EPKSSDKTHTCPPCPAPELLGGPSVFLFPPKPKDTLMISRTPEVTCVVVDVSHEDPEVKFNWYVDGVEVHNAKTKPREEQYNSTYRVVSVLTVLHQDWLNGKEYKCKVSNKALPAPIEKTISKAKGQPREPQVCTLPPSRDELTKNQVSLWCLVKGFYPSDIAVEWESNGQPENNYKTTPPVLDSDGSFFLYSKLTVDKSRWQQGNVFSCSVMHEALHNRYTQKSLSLSP
light: DIVMTQSPLSLPVTPGEPASISCRSSQPPVHSNRNTYLHWYQQKPGQAPRLLIYKVSNRFSGVPDRFSGSGSGTDFTLKISRVEAEDVGVYYCTQGTQVPYTFGQGTKLEIKRTVAAPSVFIFPPSDEQLKSGTASVVCLLNNFYPREAKVQWKVDNALQSGNSQESVTEQDSKDSTYSLSSTLTLSKADYEKHKVYACEVTHQGLSSPVTKSFNRGEC
notes: single-arm
Regarding B4, the Kd was 47 nM.

B5: TR01H082-E22Hh/none-Hi-Kn010G3/L0259-k0 (antibody, human IgG1, kappa, L234A L235A, N297A)
heavy: QVQLVESGGGLVQPGRSLRLSCAASGFTFSNAWMHWVRQAPGKGLEWVAQIKDKSQNYATYYAESVKGRFTISRDDSKNSLYLQMNSLKTEDTAVYYCRYVHYAAGYGVDAWGQGTTVTVSSASTKGPSVFPLAPSSKSTSGGTAALGCLVKDYFPEPVTVSWNSGALTSGVHTFPAVLQSSGLYSLSSVVTVPSSSLGTQTYICNVNHKPSNTKVDKKVEPKSCDKTHTCPPCPAPEAAGGPSVFLFPPKPKDTLMISRTPEVTCVVVDVSHEDPEVKFNWYVDGVEVHNAKTKPREEQYASTYRVVSVLTVLHQDWLNGKEYKCKVSNKALPAPIEKTISKAKGQPREPQVYTLPPSRCELTKNQVSLSCAVKGFYPSDIAVEWESNGQPENNYKTTPPVLDSDGSFFLVSKLTVDKSRWQQGNVFSCSVMHEALHNHYTQKSLSLSPDYKDDDDK
chain: EPKSSDKTHTCPPCPAPELLGGPSVFLFPPKPKDTLMISRTPEVTCVVVDVSHEDPEVKFNWYVDGVEVHNAKTKPREEQYNSTYRVVSVLTVLHQDWLNGKEYKCKVSNKALPAPIEKTISKAKGQPREPQVCTLPPSRDELTKNQVSLWCLVKGFYPSDIAVEWESNGQPENNYKTTPPVLDSDGSFFLYSKLTVDKSRWQQGNVFSCSVMHEALHNRYTQKSLSLSP
light: DIVMTQSPLSLPVTPGEPASISCRSSQSPVHSNRNTYIHWYQQKPGQAPRLLIYKVSNRFSGVPDRFSGSGSGTDFTLKISRVEAEDVGVYYCTQGTQVPYTFGQGTKLEIKRTVAAPSVFIFPPSDEQLKSGTASVVCLLNNFYPREAKVQWKVDNALQSGNSQESVTEQDSKDSTYSLSSTLTLSKADYEKHKVYACEVTHQGLSSPVTKSFNRGEC
notes: single-arm
The molecule B5 had a dissociation constant (Kd) of 50.7 nM.

B6: TR01H082-E22Hh/none-Hi-Kn010G3/L0262-k0 (antibody, human IgG1, kappa, L234A L235A, N297A)
heavy: QVQLVESGGGLVQPGRSLRLSCAASGFTFSNAWMHWVRQAPGKGLEWVAQIKDKSQNYATYYAESVKGRFTISRDDSKNSLYLQMNSLKTEDTAVYYCRYVHYAAGYGVDAWGQGTTVTVSSASTKGPSVFPLAPSSKSTSGGTAALGCLVKDYFPEPVTVSWNSGALTSGVHTFPAVLQSSGLYSLSSVVTVPSSSLGTQTYICNVNHKPSNTKVDKKVEPKSCDKTHTCPPCPAPEAAGGPSVFLFPPKPKDTLMISRTPEVTCVVVDVSHEDPEVKFNWYVDGVEVHNAKTKPREEQYASTYRVVSVLTVLHQDWLNGKEYKCKVSNKALPAPIEKTISKAKGQPREPQVYTLPPSRCELTKNQVSLSCAVKGFYPSDIAVEWESNGQPENNYKTTPPVLDSDGSFFLVSKLTVDKSRWQQGNVFSCSVMHEALHNHYTQKSLSLSPDYKDDDDK
chain: EPKSSDKTHTCPPCPAPELLGGPSVFLFPPKPKDTLMISRTPEVTCVVVDVSHEDPEVKFNWYVDGVEVHNAKTKPREEQYNSTYRVVSVLTVLHQDWLNGKEYKCKVSNKALPAPIEKTISKAKGQPREPQVCTLPPSRDELTKNQVSLWCLVKGFYPSDIAVEWESNGQPENNYKTTPPVLDSDGSFFLYSKLTVDKSRWQQGNVFSCSVMHEALHNRYTQKSLSLSP
light: DIVMTQSPLSLPVTPGEPASISCRSSQPPVHSNRNTYLHWYQQKPGQAPRLLIYKVSNRFSGVPDRFSGSGSGTDFTLKISRVEAEDVGVYYCAQGTQVPYTFGQGTKLEIKRTVAAPSVFIFPPSDEQLKSGTASVVCLLNNFYPREAKVQWKVDNALQSGNSQESVTEQDSKDSTYSLSSTLTLSKADYEKHKVYACEVTHQGLSSPVTKSFNRGEC
notes: single-arm
As for B6, the Kd came to 39.8 nM.
